Patent US8003345B2, “Antioxidant pharmaceutical compound, method for producing polypeptide and method of cure” (Institute of Cell Biophysics Russian Academy of Sciences, priority 2002, dated 2011)

Assays:
[1] = system: tracheal epithelium of rat after application of lipopolysaccharide; assay: Inflammation of rat tracheal epithelium caused by lipopolysaccharide (LPS); format: in vivo
Method: The therapeutic properties of peroxiredoxin Prx VI in treating the upper respiratory tract of rat immediately after the application of LPS were checked on a group of 4 Wistar line rats weighing 150-200 grams. The application of LPS was carried out in the following manner. The rats were anesthetized with hexenal, and 100 μl of a lipopolysaccharide solution were introduced through a catheter (the lipopolysaccharide concentration was from 10^−9 to 10^−11 mg/ml, the total number of the used animals was 20). After the application of the lipopolysaccharide, the rats were maintained for a definite period of time (1 hour, 3 hours, 6 hours, 7 hours, 9 hours), then narcotized with hexenal (300 mg/kg weight), and a sample of the tracheal epithelial tissue was isolated. For histochemical investigations the isolated sample was placed into a fixing solution containing 2% of formaldehyde and 0.5% of glutaraldehyde. The tissue was dehydrated by sequential routing through ethyl alcohol with increasing concentration (40-100%). The tissue was embedded into LR white resin. The resin was polymerized at room temperature. 0.5 em-thick sections were made on an LKB ultratome (Sweden), using glass knives. The sections were stained with a hematoxylin-eosine and analyzed under a light microscope.
For biochemical investigations we scraped the epithelium with a thin spatula, washed off the scrape with physiological solution and centrifugated at 10000 g for 15 min. The concentration of hydrogen peroxide was by the luminescence method. […] After LPS, application of a solution of a composition based on peroxiredoxin Prx VI into the trachea was carried out. Preliminarily the rats were narcotized by intraperitoneal administration of hexenal (70 mg/kg), the animals were fixed on an operating table, and under visual control with the aid of a binocular lens, through a catheter of 1 mm in diameter, peroxiredoxin solution (20 to 100 μl) was introduced into the trachea. The peroxiredoxin concentration was from 0.5 to 5.0 mg/ml. A 0.9% solution of NaCl was used as the solvent. The application of the solution of the composition was carried out once, immediately after the application of LPS. The application of pure solvent, solutions of serum albumin (10 mg/ml) and of glutathione (10 mM) were used as control.
Histological investigation of the trachea was carried out 24 hrs after the LPS application.

oxyhemoglobin = assay: Protection of oxyhemoglobin from the action of ionizing radiation; format: biochemical; conditions: about 50 μg/ml added before irradiation; 10 Gy; registered at 635 nm
Excerpt: The antiradiation properties of Prx Vlhum are investigated both in vitro, by investigating a solution of hemoglobin, and in vivo on animals. Irradiation of a solution of hemoglobin (see Example 10) leads to essential changes in its structure (appearance of peaks at 635 nm and an increase of light scattering), this being indicative of conversion of oxyhemoglobin to methemoglobin, followed by the aggregation thereof.
For checking the possibility of protecting biological macromolecules from destruction caused by ionizing radiation with the aid of peroxiredoxin, we have investigated the characteristics of irradiated oxyhemoglobin in control and in the presence of peroxiredoxin. In control we used a solution of oxyhemoglobin (0.16 D at 540 nm) in 0.1 M of Tris-HCl (pH 7.0) which was irradiated in a GUBE apparatus with the total exposure dose of 10 Gy. As the radioprotector peroxiredoxin Prx V1hum was used in different concentrations (5-100 μg/ml) in the presence of 50 μM of dithiothreitol. The formation of oxidized forms of oxyhemoglobin (methemoglobin) was registered at 635 nm, and aggregation of methemoglobin was registered at 700 nm.

[2] = system: tracheal epithelium of rat after application of lipopolysaccharide; assay: Inflammation of rat tracheal epithelium caused by lipopolysaccharide (LPS); format: in vivo; remark: listed apart in the source
[3] = Cytotoxicity: number of live line L929 cells; format: cell-based, human; conditions: 0.1-10 μg/ml concentration; Trypan stain
Method: The cytotoxicity is determined from the influence of recombinant Prx V1hum or of natural rat Prx V1rat on the level of proliferation of line L929 human lymphoblastoma cells and of T-lymphocytes from the spleen of line NRRI rats stimulated with concavalin A.
Cells of two lines with the concentration of 10^4 cells/ml medium were cultivated in RPMI 1640 containing 5% of bovine fetal serum. The stimulation of T-lymphocytes was carried out with the 0.1 μg/ml concentration of concavalin. In the case of T-lymphocytes the proliferation level was determined from the inclusion of ^3H-thymidine. The number of live line L929 cells was determined in a 96-cell plate with the aid of a Trypan stain, followed by scanning on a Multiscan multichannel photometer (LKB, Sweden).

B1: Prx VIhum: recombinant full-size human peroxiredoxin Prx VI, 224 amino acids (SEQ ID NO: 1), produced in E.coli (protein)
chain: MPGGLLLGDVAPNFEANTTVGRIRFHDFLGDSWGILFSHPRDFTPVCTTELGRAAKLAPEFAKRNVKLIALSIDSVEDHLAWSKDINAYNCEEPTEKLPFPIIDDRNRELAILLGMLDPAEKDEKGMPVTARVVFVFGPDKKLKLSILYPATTGRNFDEILRVVISLQLTAEKRVATPVDWKDGDSVMVLPTIPEEEAKKLFPKGVFTKELPSGKKYLRYTPQP
[1]; 24 hrs after LPS, application immediately after the LPS, FIG. 9B
  preservation of the tracheal epithelium: Complete preservation of the epithelium
[1]; Time after the action of LPS: 1 hour
  Integrity of tracheal epithelium (according to histological data): 90%
[1]; Time after the action of LPS: 3 hours
  Integrity of tracheal epithelium (according to histological data): 80%
[1]; Time after the action of LPS: 6 hours
  Integrity of tracheal epithelium (according to histological data): 65%
oxyhemoglobin
  concentration of oxidized forms of hemoglobin: lowered almost to zero
[2]; Treatment 24 hours later for 5 days and the integrity of epithelium 2 weeks later
  Integrity of tracheal epithelium (according to histological data): 80%
[2]; after 2 weeks, single application into the trachea immediately after LPS, FIG. 9
  restoration of the epithelial tissue: almost complete restoration of the epithelial tissue
[3]
  effect on the number of live line L929 cells: did not produce any effect
